Experiments:
[1] = target: mouse cytochrome c with a C-terminal Flag tag
Chain of mouse cytochrome c with a C-terminal Flag tag (chain, as listed by the source): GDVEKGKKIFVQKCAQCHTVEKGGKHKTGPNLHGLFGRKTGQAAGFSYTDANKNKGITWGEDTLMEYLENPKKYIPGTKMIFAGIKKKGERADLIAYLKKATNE

Row | Protein | acetylation of residues K40 and K74 of cytochrome c (mass spectrometry) [1] | deacetylation assay (Western blot) (endogenous cytochrome c)
1 | human SIRT3-HA (protein) MAFWGWRAAAALRLWGRVVERVEAGGGVGPFQACGCRLVLGGRDDVSAGLRGSHGARGEPLDPARPLQRPPRPEVPRAFRRQPRAAAPSFFFSSIKGGRRSISFSVGASSVVGSGGSSDKGKLSLQDVAELIRARACQRVVVMVGAGISTPSGIPDFRSPGSGLYSNLQQYDLPYPEAIFELPFFFHNPKPFFTLAKELYPGNYKPNVTHYFLRLLHDKGLLLRLYTQNIDGLERVSGIPASKLVEAHGTFASATCTVCQRPFPGEDIRADVMADRVPRCPVCTGVVKPDIVFFGEPLPQRFLLHVVDFPMADLLLILGTSLEVEPFASLTEAVRSSVPRLLINRDLVGPLAWHPRSRDVAQLGDVVHGVESLVELLGWTEEMRDLVQRETGKLDGPDK | when hSIRT3 was cotransfected with cytochrome c, acetylation of residues K40 and K74 of cytochrome c was no longer detected | 
2 | SIRT3 (protein) MAFWGWRAAAALRLWGRVVERVEAGGGVGPFQACGCRLVLGGRDDVSAGLRGSHGARGEPLDPARPLQRPPRPEVPRAFRRQPRAAAPSFFFSSIKGGRRSISFSVGASSVVGSGGSSDKGKLSLQDVAELIRARACQRVVVMVGAGISTPSGIPDFRSPGSGLYSNLQQYDLPYPEAIFELPFFFHNPKPFFTLAKELYPGNYKPNVTHYFLRLLHDKGLLLRLYTQNIDGLERVSGIPASKLVEAHGTFASATCTVCQRPFPGEDIRADVMADRVPRCPVCTGVVKPDIVFFGEPLPQRFLLHVVDFPMADLLLILGTSLEVEPFASLTEAVRSSVPRLLINRDLVGPLAWHPRSRDVAQLGDVVHGVESLVELLGWTEEMRDLVQRETGKLDGPDK |  | SIRT3 can deacetylate endogenous cytochrome c

From US20150233949
